Data as given in article PMC5298014, “Site‐Specific Immobilization of the Peptidoglycan Synthase PBP1B on a Surface Plasmon Resonance Chip Surface” (Chembiochem, 2016).
Several values for one entry are separate records, joined by “and”; a condition that tells them apart may be missing. Equal values may be shown once.

Molecular target: T1, LpoB(sol) (signal sequence and lipid anchor of LpoB replaced by an oligohistidine tag)
T1 construct: also called His-LpoB(sol); source: E. coli BL21(DE3) with pET28LpoB, purified (HisTrap, thrombin, HiTrap Q flow-through, Superdex 200)
Experiment: SPR; IBIS-MX96; PBP1B Gly55AzF immobilised through its azide on a SensEye P-NH2 sensor coated with sulfo-dibenzylcyclooctyne-NHS ester, blocked with azidoethanol; LpoB injected at different concentrations; running buffer 10 mM Tris/maleate pH 7.5, 150 mM NaCl, 0.05 % Triton X-100; KD from maximum RU against concentration, one-site saturation
Settings: both partners purified

B1: PBP1B Gly55AzF (N-terminal His6-tagged PBP1Bγ with p-azidophenylalanine in place of Gly55) (enzyme)
chain: MPRKGKGKGKFRKPRGKRGWLWLLLKLAIVFAVLIAIYGVYLDQKIRSRIDGKVWQLPAAVYGRMVNLEPDMTISKNEMVKLLEATQYRQVSKMTRPGEFTVQANSIEMIRRPFDFPDSKEGQVRARLTFDGDHLATIVNMENNRQFGFFRLDPRLITMISSPNGEQRLFVPRSGFPDLLVDTLLATEDRHFYEHDGISLYSIGRAVLANLTAGRTVQGASTLTQQLVKNLFLSSERSYWRKANEAYMALIMDARYSKDRILELYMNEVYLGQSGDNEIRGFPLASLYYFGRPVEELSLDQQALLVGMVKGASIYNPWRNPKLALERRNLVLRLLQQQQIIDQELYDMLSARPLGVQPRGGVISPQPAFMQLVRQELQAKLGDKVKDLSGVKIFTTFDSVAQDAAEKAAVEGIPALKKQRKLSDLETAIVVVDRFSGEVRAMVGGSEPQFAGYNRAMQARRSIGSLAKPATYLTALSQPKIYRLNTWIADAPIALRQPNGQVWSPQNDDRRYSESGRVMLVDALTRSMNVPTVNLGMALGLPAVTETWIKLGVPKDQLHPVPAMLLGALNLTPIEVAQAFQTIASGGNRAPLSALRSVIAEDGKVLYQSFPQAERAVPAQAAYLTLWTMQQVVQRGTGRQLGAKYPNLHLAGKTGTTNNNVDTWFAGIDGSTVTITWVGRDNNQPTKLYGASGAMSIYQRYLANQTPTPLNLVPPEDIADMGVDYDGNFVCSGGMRILPVWTSDPQSLCQQSEMQQQPSGNPFDQSSQPQQQPQQQPAQQEQKDSDGVAGWIKDMFGSN
modifications: p-azidophenylalanine in place of Gly55; coupled through this azide to dibenzylcyclooctyne on the chip surface
Kd: 0.71 to 0.97 µM and 0.84 µM
